# Target: ZIKV envelope (E) protein, HA-tagged
# Assay: co-immunoprecipitation (HA-specific IP) with densitometry of immunoblots
# Conditions: HEK 293T cells, lysed 18 h after transfection; n = 4; parent: est. 0.93; read off a plot
row,Substance,ratio to parent (fold E; mut:WT)
1,"ZIKV prM protein, wild type K60L; Y63A",1.7
2,"ZIKV prM protein, wild type R38L; F42A",1.6
3,"ZIKV prM protein, wild type R38L; F42S",0.93
4,"ZIKV prM protein, wild type K60L; Y63S",0.9
